{"source": "paper PMC9917443", "origin": "cited, not measured here", "key": {"[1]": {"target": "GB1a SD1 (UniProt Q9UBS5)", "sequence (Q9UBS5 30-96)": "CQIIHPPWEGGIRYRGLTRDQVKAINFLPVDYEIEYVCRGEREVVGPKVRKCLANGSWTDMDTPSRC"}, "[2]": {"target": "GB1a SD1 (UniProt Q9UBS5)", "remark": "listed apart in the source"}, "[3]": {"target": "GB1a SD1 (UniProt Q9UBS5)", "remark": "listed apart in the source"}}, "note": "Where two headings read alike, the source gives them in different places."}
{"substance": "APP17 APP17 peptide (from UniProt P05067)", "values": [{"measurement": "Kd", "setting": "[1]", "value": 810, "unit": "nM"}]}
{"substance": "APP (from UniProt P05067)", "values": [{"measurement": "Kd", "setting": "[2]", "value": 183, "unit": "nM"}]}
{"substance": "sAPP (from UniProt P05067)", "values": [{"measurement": "Kd", "setting": "[3]", "value": 431, "unit": "nM"}]}
